The record followed here is patent publication US20040175378A1, “Selected antibody compositions and methods for binding to aminophospholipids” (Board of Regents, The University of Texas System, priority 2002, published 2004).

For data set [1] the following is noted: mouse, in vivo, iv.
Data set [2] has as its system orthotopic MDA-MB-435 breast cancer. The experiment in a line: 3G4 and ch3G4 tumor treatment. Type of data set: in vivo, mice. The procedure: Tumors were also established using MD-MBA-435s cells and treated as described above. […] The treatment of large L540 tumors, MDA-MB-231 and MD-MBA-435s tumor cells for 60 days is shown in FIG. 8D, FIG. 8E and FIG. 8F. The antibodies caused tumor vascular injury, thrombosis and necrosis and retarded tumor growth, with no evidence of toxicity.
MD-MBA-435s lucerifase cells were obtained from Dr. Angels Sierra Jimenez, Barcelona, Spain and were grown in 10% DMEM. Mice were injected with tumor cells as described as above, and at 2 weeks post injection, the tumors were measured and the volume recorded. […] Treatment was initiated by IP injection (800 μg) at day 15 and continued with injections of 200 μg every two to three days until the final injection of 400 μg at day 35. Tumor volumes and mouse body weights were measured on injection days. Mice were sacrificed and perfused with saline for 12 minutes. The organs and tumor were removed, snap-frozen in liquid nitrogen and the tumor sectioned for immunohistochemistical analysis.

The nature of another data set: Toxicity of 3G4 in mice. The data set is classed as in vivo, BALB/c mice. An excerpt:
The following parameters were specifically examined.
There were no physical signs of toxicity, e.g. hair loss, loss of appetite, etc. […] Marrows in the treated animals were essentially completely cellular (as would be expected for a young mammal). Erythroid, granulocytic, lymphocytic progenitors and megakaryocytes were present in normal numbers.
Mice retain normal physical signs, bone marrow cellularity, white blood cell counts, histology and coagulation functions.

The mark [3] stands for this setting: 100 μg IP three times a week for 2 to 3 weeks.

B1: 3G4: mouse IgG3 kappa monoclonal antibody binding PS and other anionic phospholipids; hybridoma ATCC PTA 4545 (antibody, V domains shown)
VH: EVQLQQSGPELEKPGASVKLSCKASGYSFTGYNMNWVKQSHGKSLEWIGHIDPYYGDTSYNQKFRGKATLTVDKSSSTAYMQLKSLTSEDSAVYYCVKGGYYGHWYFDVWGAGTTVTVSSATTTAPSVYPLVP
VL: DIQMTQSPSSLSASLGERVSLTCRASQDIGSSLNWLQQGPDGTIKRLIYATSSLDSGVPKRFSGSRSGSDYSLTISSLESEDFVDYYCLQYVSSPPTFGAGTKLELKRADAAPTVFIFGRIP
Regarding B1, in data set [1], the Volume of distribution stood at 0.1 L/kg, the “half-life in the α-phase of clearance” value was 3 h and the “half-life in the β-phase of clearance” value was determined as 120 h. Further, the “tumor growth as opposed to control” value in data set [2] (i.p. 800 μg day 15, 200 μg every two to three days, 400 μg day 35) was “effectively retarded tumor growth”. In data set [2] (orthotopic MDA-MB-435), this molecule showed a growth retardation of 70%. Further, in “Toxicity of 3G4 in mice” (setting [3]), the blood cell counts entry is listed as “no changes in blood cell counts” and the bodyweight result is given as “gained weight at the same rate as BBG3 treated mice”. Further, the toxicity result in “Toxicity of 3G4 in mice” (1 mg purified 3G4 intraperitoneally) is on record as “no toxicity was observed”. In addition, the toxicity entry in “Toxicity of 3G4 in mice” (more than 200 mice, 0.1 mg three times a week for 2-3 weeks) is given as “no instance of toxicity has been observed”.
